The results in this text go back to article PMC3203581.

Data set [1] concerns the target T1, tvMyb2 40-156 (Trichomonas vaginalis, UniProt Q58HP3 40-156).
T1 sequence: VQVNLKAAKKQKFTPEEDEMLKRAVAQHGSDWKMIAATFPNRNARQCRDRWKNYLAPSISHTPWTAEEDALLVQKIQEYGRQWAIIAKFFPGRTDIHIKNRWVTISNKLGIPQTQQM
As to the kind of experiment: X-ray crystallography.

Data set [2] deals with T1, tvMyb2 40-156. As to the kind of experiment: X-ray crystallography. The source holds these as a separate data set.

Like-named read-outs stand apart in the source and are kept apart here.

B1: MRE-1-12 (dsDNA)
DNA 1: ATAACGATATTT
DNA 2: AAATATCGTTAT
As to B1, the binding result in the data set with tvMyb2 40-156 [1] is reported as “binds”.

B2: MRE-2-13 (dsDNA)
DNA 1: CTGTATCGTCTTG
DNA 2: CAAGACGATACAG
In the case of B2, the binding result with tvMyb2 40-156 [2] is reported as “binds”.
